Measurements: patent publication US20100081611A1

Target: pre-assembled ICN-CSL complex (UniProt P46531)
Assay: surface plasmon resonance, peptide immobilized, pre-assembled ICN-CSL complex

Chain of pre-assembled ICN-CSL complex (P46531 1760-2126, chain 1 of 2): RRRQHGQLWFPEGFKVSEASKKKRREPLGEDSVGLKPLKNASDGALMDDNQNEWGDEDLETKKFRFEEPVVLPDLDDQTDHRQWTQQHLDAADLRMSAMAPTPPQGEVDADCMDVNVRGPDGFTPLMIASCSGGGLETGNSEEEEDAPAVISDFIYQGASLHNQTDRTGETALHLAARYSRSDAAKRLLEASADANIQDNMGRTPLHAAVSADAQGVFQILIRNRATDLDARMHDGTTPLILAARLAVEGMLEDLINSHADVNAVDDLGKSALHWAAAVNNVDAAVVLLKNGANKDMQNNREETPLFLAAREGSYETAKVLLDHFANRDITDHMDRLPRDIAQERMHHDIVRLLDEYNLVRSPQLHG
Chain of pre-assembled ICN-CSL complex (Q06330 23-449, chain 2 of 2, further chain): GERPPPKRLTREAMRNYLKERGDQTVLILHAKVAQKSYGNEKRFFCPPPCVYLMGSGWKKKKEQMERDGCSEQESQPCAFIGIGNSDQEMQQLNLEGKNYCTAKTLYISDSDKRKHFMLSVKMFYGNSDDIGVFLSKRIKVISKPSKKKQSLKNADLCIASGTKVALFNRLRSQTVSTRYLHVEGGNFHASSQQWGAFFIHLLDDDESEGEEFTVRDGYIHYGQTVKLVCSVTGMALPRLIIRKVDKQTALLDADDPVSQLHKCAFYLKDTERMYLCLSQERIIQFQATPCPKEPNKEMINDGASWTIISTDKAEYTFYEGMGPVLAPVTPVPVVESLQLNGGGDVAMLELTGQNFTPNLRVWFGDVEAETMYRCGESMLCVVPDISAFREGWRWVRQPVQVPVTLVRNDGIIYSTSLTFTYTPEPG

SAHN1 (REM-G1), internally cross-linked (stapled) MAML-1 polypeptide
Kd: 98 nM
